Experimental data reported in US20120329718A1.

Target: M2 muscarinic acetylcholine receptor, endogenous, canine atrium (canine)
Assay: cell-based or functional assay

| Substance | vagal-induced ERP shortening in the PLA, 3 days after minigene delivery (Gαi2ctp dogs vs. GαRp control dogs) [ms] | vagal-induced ERP shortening in the PLA, Gαo1ctp minigene given together with Gαi2ctp minigene (vs. Gαi2ctp alone) [ms] |
| --- | --- | --- |
| Gαi2 C-terminal peptide expressed from a pFLAG CMV6a minigene (FLAG-tagged Gαi2ctp) | 19.5 |  |
| Gαo1 C-terminal peptide expressed from a pFLAG CMV6a minigene (Gαo1ctp) |  | 2.8 |
